Measured values published in US20160031959A1.

Target: recombinant BAX protein (UniProt Q07812)
Experiment: fluorescence polarization, FITC-labeled peptide incubated with recombinant BAX at various concentrations, 60 min, room temperature

recombinant BAX protein, sequence (Q07812 whole entry, form in doubt): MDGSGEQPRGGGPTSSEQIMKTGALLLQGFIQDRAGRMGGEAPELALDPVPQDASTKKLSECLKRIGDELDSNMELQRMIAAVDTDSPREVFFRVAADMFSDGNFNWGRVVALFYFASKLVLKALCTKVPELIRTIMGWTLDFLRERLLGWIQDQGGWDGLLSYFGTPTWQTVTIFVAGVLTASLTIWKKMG

EC50: 4.6 nM
Substance: BCL-2 BH4 SAHBA (peptide)
